Data published in patent US20180186893A1 (NATIONAL RESEARCH COUNCIL OF CANADA, published 2018).

Experiments:
[1] = molecular target: T1, hCA-IX fragment 2 (aa 38-136, +PG+) displayed on yeast as Aga2-HA-CA9-MYC (pPNL6), clone 2B (human, UniProt P32781 19-87; Q16790 38-136); test: YSD whole yeast cell ELISA, native
T1 construct: not shown: HA tag; MYC tag

[2] = molecular target: T2, rhCA-IV (human, UniProt P22748 19-283, limits assumed); test: SPR, antibody captured by anti-human Fc
T2 construct: Bought; construct not described; also called recombinant human CA-IV

[3] = molecular target: T3, rhCA-XII (human, UniProt O43570 25-291, limits assumed); test: SPR, antibody captured by anti-human Fc
T3 construct: Bought; construct not described; also called recombinant human CA-XII (Sino Biologics)

[4] = molecular target: T4, rhCA-XIV (human, UniProt Q9ULX7 16-290, limits assumed); test: SPR, antibody captured by anti-human Fc
T4 construct: Bought; construct not described; also called recombinant human CA-XIV

[5] = molecular target: T5, rmCA-IX (murine, UniProt Q8VHB5 32-389, limits assumed); test: SPR, antibody captured by anti-human Fc
T5 construct: Bought; construct not described; also called recombinant murine (rm)CA-IX

[6] = molecular target: T6, hCA-IX PG domain fragment #1 (aa 37-51) displayed on yeast as Aga2-HA-CA9-MYC (pPNL6), clone 1 A + B (human, UniProt P32781 19-87 (Saccharomyces cerevisiae entry)); test: YSD whole yeast cell ELISA, native PG tiling fragment;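 note: monoclonal antibody binding to intact yeast cells displaying the fragment, read by ELISA, with the anti-CA-IX signal normalized against the anti-MYC display signal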
T6 construct: not shown: HA tag; MYC tag

[7] = molecular target: T7, hCA-IX PG domain fragment #2 (aa 47-61) displayed on yeast as Aga2-HA-CA9-MYC (pPNL6), clone 2 A + B (human, UniProt P32781 19-87 (Saccharomyces cerevisiae entry)); test: as above
T7 construct: not shown: HA tag; MYC tag

[8] = molecular target: T8, hCA-IX PG domain fragment #3 (aa 57-71) displayed on yeast as Aga2-HA-CA9-MYC (pPNL6), clone 3 A + B (human, UniProt P32781 19-87 (Saccharomyces cerevisiae entry)); test: as above
T8 construct: not shown: HA tag; MYC tag

[9] = molecular target: T9, hCA-IX PG domain fragment #4 (aa 67-81) displayed on yeast as Aga2-HA-CA9-MYC (pPNL6), clone 4 A + B (human, UniProt P32781 19-87 (Saccharomyces cerevisiae entry)); test: as above
T9 construct: not shown: HA tag; MYC tag

[10] = molecular target: T10, hCA-IX PG domain fragment #5 (aa 77-91) displayed on yeast as Aga2-HA-CA9-MYC (pPNL6), clone 5 A + B (human, UniProt P32781 19-87 (Saccharomyces cerevisiae entry)); test: as above
T10 construct: not shown: HA tag; MYC tag

[11] = molecular target: T11, hCA-IX PG domain fragment #6 (aa 87-101) displayed on yeast as Aga2-HA-CA9-MYC (pPNL6), clone 6 A + B (human, UniProt P32781 19-87 (Saccharomyces cerevisiae entry)); test: as above
T11 construct: not shown: HA tag; MYC tag

[12] = molecular target: T12, hCA-IX PG domain fragment #7 (aa 97-111) displayed on yeast as Aga2-HA-CA9-MYC (pPNL6), clone 7 A + B (human, UniProt P32781 19-87 (Saccharomyces cerevisiae entry)); test: as above
T12 construct: not shown: HA tag; MYC tag

[13] = molecular target: T13, hCA-IX PG domain fragment #8 (aa 107-121) displayed on yeast as Aga2-HA-CA9-MYC (pPNL6), clone 8 A + B (human, UniProt P32781 19-87 (Saccharomyces cerevisiae entry)); test: as above
T13 construct: not shown: HA tag; MYC tag

[14] = molecular target: T14, hCA-IX PG domain fragment #9 (aa 117-131) displayed on yeast as Aga2-HA-CA9-MYC (pPNL6), clone 9 A + B (human, UniProt P32781 19-87 (Saccharomyces cerevisiae entry)); test: as above
T14 construct: not shown: HA tag; MYC tag

[15] = molecular target: T15, hCA-IX PG domain fragment #11 (aa 37-71) displayed on yeast as Aga2-HA-CA9-MYC (pPNL6), clone 11 A + B (human, UniProt P32781 19-87 (Saccharomyces cerevisiae entry)); test: as above
T15 construct: not shown: HA tag; MYC tag

[16] = molecular target: T16, hCA-IX PG domain fragment #12 (aa 67-111) displayed on yeast as Aga2-HA-CA9-MYC (pPNL6), clone 12 A + B (human, UniProt P32781 19-87 (Saccharomyces cerevisiae entry)); test: as above
T16 construct: not shown: HA tag; MYC tag

[17] = molecular target: T17, hCA-IX PG domain fragment #13 (aa 107-140) displayed on yeast as Aga2-HA-CA9-MYC (pPNL6), clone 13 A + B (human, UniProt P32781 19-87 (Saccharomyces cerevisiae entry)); test: as above
T17 construct: not shown: HA tag; MYC tag

[18] = molecular target: T18, hCA-IX PG domain fragment #14 (aa 37-140) displayed on yeast as Aga2-HA-CA9-MYC (pPNL6), clone 14 A + B (human, UniProt P32781 19-87 (Saccharomyces cerevisiae entry)); test: as above
T18 construct: not shown: HA tag; MYC tag

[19] = molecular target: T19, dimeric CA-IX extracellular domain (ECD) from mouse (mouse, UniProt Q8VHB5 32-390); test: SPR, antibody captured by anti-human Fc, specific binding yes/no
T19 construct: extracellular domain

[20] = molecular target: hCA-IX fragment 8 (aa 38-414, +PG+CA+) displayed on yeast as Aga2-HA-CA9-MYC (pPNL6), clone 8B (human, UniProt P32781 19-87; Q16790 38-414); test: YSD whole yeast cell ELISA, native, normalised to anti-MYC; native fragment on yeast (Table 7)
Sequence of hCA-IX fragment 8 (aa 38-414, +PG+CA+) displayed on yeast as Aga2-HA-CA9-MYC (pPNL6), clone 8B (P32781 19-87 limits assumed, chain 1 of 2, other chains not shown): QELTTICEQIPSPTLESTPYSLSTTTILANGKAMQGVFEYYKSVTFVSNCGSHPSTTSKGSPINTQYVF

T19 sequence (Q8VHB5 32-390): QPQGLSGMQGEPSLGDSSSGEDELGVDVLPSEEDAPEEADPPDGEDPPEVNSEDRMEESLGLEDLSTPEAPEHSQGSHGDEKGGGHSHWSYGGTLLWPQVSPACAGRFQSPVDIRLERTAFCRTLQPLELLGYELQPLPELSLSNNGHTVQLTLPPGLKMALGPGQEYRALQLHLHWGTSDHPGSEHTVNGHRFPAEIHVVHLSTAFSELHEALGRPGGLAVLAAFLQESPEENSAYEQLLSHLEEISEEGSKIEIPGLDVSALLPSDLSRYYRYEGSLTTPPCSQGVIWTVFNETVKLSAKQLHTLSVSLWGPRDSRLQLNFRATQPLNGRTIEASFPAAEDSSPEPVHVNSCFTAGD
T8 sequence (P32781 19-87 limits assumed): as the sequence (P32781 19-87 limits assumed, chain 1 of 2, other chains not shown) above
T10 sequence (P32781 19-87 limits assumed): as the sequence (P32781 19-87 limits assumed, chain 1 of 2, other chains not shown) above
T14 sequence (P32781 19-87 limits assumed): as the sequence (P32781 19-87 limits assumed, chain 1 of 2, other chains not shown) above
T9 sequence (P32781 19-87 limits assumed): as the sequence (P32781 19-87 limits assumed, chain 1 of 2, other chains not shown) above
T6 sequence (P32781 19-87 limits assumed): as the sequence (P32781 19-87 limits assumed, chain 1 of 2, other chains not shown) above
T13 sequence (P32781 19-87 limits assumed): as the sequence (P32781 19-87 limits assumed, chain 1 of 2, other chains not shown) above
T15 sequence (P32781 19-87 limits assumed, chain 1 of 2): as the sequence (P32781 19-87 limits assumed, chain 1 of 2, other chains not shown) above
T15 sequence (chain (part 2 of 2), as listed by the source limits assumed, chain 2 of 2): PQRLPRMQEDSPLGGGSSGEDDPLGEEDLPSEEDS
T11 sequence (P32781 19-87 limits assumed): as the sequence (P32781 19-87 limits assumed, chain 1 of 2, other chains not shown) above
T17 sequence (P32781 19-87 limits assumed, chain 1 of 2): as the sequence (P32781 19-87 limits assumed, chain 1 of 2, other chains not shown) above
T17 sequence (chain (part 2 of 2), as listed by the source limits assumed, chain 2 of 2): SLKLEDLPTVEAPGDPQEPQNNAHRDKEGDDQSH
T18 sequence (P32781 19-87 limits assumed, chain 1 of 2): as the sequence (P32781 19-87 limits assumed, chain 1 of 2, other chains not shown) above
T18 sequence (chain (part 2 of 2), as listed by the source limits assumed, chain 2 of 2): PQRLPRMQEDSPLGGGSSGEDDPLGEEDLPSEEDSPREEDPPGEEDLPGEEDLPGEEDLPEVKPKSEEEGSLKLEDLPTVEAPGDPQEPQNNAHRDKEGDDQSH
T7 sequence (P32781 19-87 limits assumed): as the sequence (P32781 19-87 limits assumed, chain 1 of 2, other chains not shown) above
T16 sequence (P32781 19-87 limits assumed, chain 1 of 2): as the sequence (P32781 19-87 limits assumed, chain 1 of 2, other chains not shown) above
T16 sequence (chain (part 2 of 2), as listed by the source limits assumed, chain 2 of 2): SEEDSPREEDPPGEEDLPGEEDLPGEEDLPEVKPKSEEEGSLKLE
T1 sequence (P32781 19-87 limits assumed, chain 1 of 2, other chains not shown): as the sequence (P32781 19-87 limits assumed, chain 1 of 2, other chains not shown) above
T12 sequence (P32781 19-87 limits assumed): as the sequence (P32781 19-87 limits assumed, chain 1 of 2, other chains not shown) above
T3 sequence (O43570 25-291 limits assumed): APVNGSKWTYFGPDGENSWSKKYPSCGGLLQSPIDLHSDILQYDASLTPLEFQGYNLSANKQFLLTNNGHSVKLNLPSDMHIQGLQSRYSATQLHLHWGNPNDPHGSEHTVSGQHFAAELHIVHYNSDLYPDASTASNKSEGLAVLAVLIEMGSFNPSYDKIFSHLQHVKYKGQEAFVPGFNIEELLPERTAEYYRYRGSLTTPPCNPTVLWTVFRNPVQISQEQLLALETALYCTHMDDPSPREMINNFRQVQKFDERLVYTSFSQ
T5 sequence (Q8VHB5 32-389 limits assumed): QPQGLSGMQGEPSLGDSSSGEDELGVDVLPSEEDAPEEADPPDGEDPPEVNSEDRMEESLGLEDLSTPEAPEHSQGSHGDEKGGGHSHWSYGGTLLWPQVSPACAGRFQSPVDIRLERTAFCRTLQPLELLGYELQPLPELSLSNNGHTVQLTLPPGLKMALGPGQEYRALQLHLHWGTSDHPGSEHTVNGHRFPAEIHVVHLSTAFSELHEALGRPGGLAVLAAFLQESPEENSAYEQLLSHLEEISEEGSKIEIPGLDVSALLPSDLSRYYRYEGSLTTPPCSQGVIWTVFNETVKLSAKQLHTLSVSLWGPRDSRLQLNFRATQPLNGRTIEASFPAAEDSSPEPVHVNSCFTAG
T2 sequence (P22748 19-283 limits assumed): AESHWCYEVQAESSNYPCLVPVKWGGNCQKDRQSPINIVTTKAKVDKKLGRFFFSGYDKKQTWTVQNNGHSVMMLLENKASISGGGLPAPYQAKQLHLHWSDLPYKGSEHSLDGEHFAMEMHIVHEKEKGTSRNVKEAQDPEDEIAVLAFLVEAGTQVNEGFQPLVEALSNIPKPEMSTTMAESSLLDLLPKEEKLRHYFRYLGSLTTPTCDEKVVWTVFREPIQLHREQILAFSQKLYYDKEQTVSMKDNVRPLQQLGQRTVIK
T4 sequence (Q9ULX7 16-290 limits assumed): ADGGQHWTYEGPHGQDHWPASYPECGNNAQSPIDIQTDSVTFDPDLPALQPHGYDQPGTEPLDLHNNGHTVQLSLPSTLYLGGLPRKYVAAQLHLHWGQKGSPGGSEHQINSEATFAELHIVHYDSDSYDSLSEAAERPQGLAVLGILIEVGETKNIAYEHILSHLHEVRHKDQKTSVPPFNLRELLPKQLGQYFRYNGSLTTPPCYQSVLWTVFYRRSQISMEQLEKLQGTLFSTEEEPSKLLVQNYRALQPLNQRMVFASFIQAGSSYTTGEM

B1: c2C7 (chimeric 2C7, human IgG1 / human kappa 1) (antibody, V domains shown)
VH: QVQLQQSGPELVKPGASVRISCKASGFTFTSCYIHWMKQRPGQGLEWIGWIYPGNGNTKYNEIFKGRATLTTDKSSSTAYMQLSSLTSEDSAVYFCARGDTTANTMDYWGQGTSVTVSS
VL: DIQMTQSPASLSASVGETVTITCRASGNIHNYLAWYQQKQGKSPQLLVYNTITLADGVPSRFSGSGSGTQYSLKINSLQPEDFGSYYCQHFWNIPFTFGAGTKLELKR
notes: Expressed in CHO cells
[1]
  binding result: no binding
[2]
  binding result: no binding (tested: 100 nM)
[3]
  binding result: no binding (tested: 100 nM)
[4]
  binding result: no binding (tested: 100 nM)
[5]
  binding result: no binding (tested: 100 nM)
[6]
  binding result: no binding
[7]
  binding result: no binding
[8]
  binding result: no binding
[9]
  binding result: no binding
[10]
  binding result: no binding
[11]
  binding result: no binding
[12]
  binding result: no binding
[13]
  binding result: no binding
[14]
  binding result: no binding
[15]
  binding result: no binding
[16]
  binding result: no binding
[17]
  binding result: no binding
[18]
  binding result: no binding
[19]
  binding result: no binding
[20]
  binding result: binds
